The target in data set [1] is Androgen receptor full length (fAR) (UniProt P10275). As to the kind of experiment: footprint. The settings on record: 60% protection at 14 nM; cooperative, within enhancer fragment.
Data set [2] has as its target Androgen receptor DNA-binding domain (ARDBD, aa 549-650) (Homo sapiens) (UniProt P10275). Kind of data set: footprint. The conditions noted are these: 75% occupancy at 1.4 uM.
Data set [3] addresses T1, Androgen receptor DNA-binding domain (ARDBD, aa 549-650) (Homo sapiens, UniProt P10275 P10275:550-651). As to the kind of experiment: footprint; lower affinity than ARE III. The conditions noted are these: tags: N-terminal His6, C-terminal heart muscle kinase site; E. coli; chain copies: 2. Here is the method: The binding reactions for DNase I footprinting were as described previously (Chi et al., 1995). Indicated amounts of recombinant AR DNA binding domain (ARDBD), FLAG-tagged AR, and crude nuclear extracts from f-LNCaP cells were incubated in 13 μl of buffer containing 12.5 mM HEPES, pH 7.9, 12.5% glycerol, 5 mM MgCl_2, 70 mM KCl, 0.2 mM EDTA, 60 mM mercaptoethanol, 0.5 mg/ml bovine serum albumin, and 200 ng of poly(dG-dC). After 45 min at 30° C., DNase I was added to the reactions. The cleavage reactions were terminated after 1 min by addition of 100 μl of stop buffer containing 400 mM sodium acetate, pH 5.2, 0.2% SDS, 10 mM EDTA, 50 μg/ml yeast tRNA, and 100 μg/ml proteinase K. The mixtures were incubated at 50° C. for 15 min, extracted with phenol/chloroform, and the products precipitated with ethanol. Precipitates were dissolved in formamide loading buffer and analyzed on 8% polyacrylamide/urea sequencing gels. The cleavage ladders were visualized by exposure to XAR-5 film or by PhosphorImager analysis.
A ^32P-labeled PCR™ fragment from −4309 to −4011 of the enhancer was subjected to DNase I footprinting studies. […] A weak footprint was also noticed below site V that had not been detected with ARDBD in earlier experiments.

Data set [4] has as its target T1, Androgen receptor DNA-binding domain …. Kind of data set: affinity column; retained at 0.5 M KCl, eluted at 0.8 M KCl. The conditions noted are these: tags: N-terminal His6, C-terminal heart muscle kinase site; E. coli; chain copies: 2; label: biotin. Here is the method:
The *Escherichia coli* strain BL21(DE3) was transformed with pET11dHis_6ARDBD. 0.1 liter of cells was grown to an $A600$ of 0.6 and induced with 0.5 mM isopropyl-1-thio-β-D-galactopyranoside and 10 μM ZnCl_2 for 3 h. After harvesting, cells were resuspended in 5 ml of Buffer A (20 mM HEPES, pH 7.9, 20% glycerol, 10 μM ZnCl_2, 0.5 mM phenylmethylsulfonyl fluoride) containing 0.1 M KCl and lysed by sonication. The supernatant was incubated with 1.5 ml of Ni-NTA-agarose (Qiagen) resin in batch, rocked gently for 30 min at 4° C., and then loaded on to a small Bio-Rad Econo-column. After successively washing the resin with 15 ml of Buffer A containing 0.1 M KCl, and 15 ml of Buffer A containing 0.1 M KCl and 20 mM imidazole, ARDBD was eluted with Buffer A containing 0.1 M KCl and 150 mM imidazole. […]

Chain of Androgen receptor full length (fAR) (P10275 whole entry, the tested form may be a part): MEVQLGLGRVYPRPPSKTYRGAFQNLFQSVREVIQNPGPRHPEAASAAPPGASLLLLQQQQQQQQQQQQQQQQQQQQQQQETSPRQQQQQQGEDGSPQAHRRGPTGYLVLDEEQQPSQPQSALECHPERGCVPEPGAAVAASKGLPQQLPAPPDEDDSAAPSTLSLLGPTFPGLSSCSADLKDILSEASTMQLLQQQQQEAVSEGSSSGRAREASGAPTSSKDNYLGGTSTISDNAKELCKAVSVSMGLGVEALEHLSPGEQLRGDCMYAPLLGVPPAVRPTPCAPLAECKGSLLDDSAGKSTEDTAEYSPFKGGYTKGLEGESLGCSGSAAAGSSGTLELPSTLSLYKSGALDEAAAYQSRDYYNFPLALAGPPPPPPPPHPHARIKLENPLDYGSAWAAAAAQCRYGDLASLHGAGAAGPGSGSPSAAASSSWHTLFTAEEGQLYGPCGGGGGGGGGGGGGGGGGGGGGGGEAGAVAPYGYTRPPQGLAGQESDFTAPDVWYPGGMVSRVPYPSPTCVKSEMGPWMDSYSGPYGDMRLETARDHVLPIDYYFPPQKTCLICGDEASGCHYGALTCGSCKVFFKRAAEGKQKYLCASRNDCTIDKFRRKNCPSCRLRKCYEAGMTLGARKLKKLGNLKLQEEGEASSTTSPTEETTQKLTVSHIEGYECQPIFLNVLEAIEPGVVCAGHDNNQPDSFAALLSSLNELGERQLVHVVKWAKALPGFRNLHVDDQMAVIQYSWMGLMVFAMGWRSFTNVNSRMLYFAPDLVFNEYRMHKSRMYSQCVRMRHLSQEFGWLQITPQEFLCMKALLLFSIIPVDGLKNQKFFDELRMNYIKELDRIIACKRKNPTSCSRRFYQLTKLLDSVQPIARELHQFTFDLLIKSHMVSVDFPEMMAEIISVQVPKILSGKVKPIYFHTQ
T1 sequence (P10275 550-651, one chain of several): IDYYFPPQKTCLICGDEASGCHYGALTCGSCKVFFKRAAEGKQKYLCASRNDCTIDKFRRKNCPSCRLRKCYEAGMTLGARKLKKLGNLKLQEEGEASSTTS
Chain of Androgen receptor DNA-binding domain (ARDBD, aa 549-650) (Homo sapiens) (P10275 550-651): as the sequence (P10275 550-651, one chain of several) above

In the case of PSA enhancer ARE IV, the K half in data set [1] was less than 14 nM.

As to PSA enhancer ARE V, the K half in data set [1] was less than 14 nM; in data set [2], less than 1400 nM.

B1: PSA enhancer ARE VI (dsDNA)
DNA 1: GGATGCTGTGCACAC
DNA 2: GTGTGCACAGCATCC
For B1, the binding result in data set [3] was “binds”.

B2: biotinylated ARE affinity oligonucleotide (dsDNA)
DNA 1: TTTCCTTGCAGTACAGCATGTTCTAGC
DNA 2: GCTAGAACATGCTGTACTGCAAGGAAA
For the molecule B2, the binding result in data set [4] is “binds”.
